Results taken from patent US20150010538A1 (AbbVie / Abbott, published 2015).
Positions count from the first letter of the chain named. Numbers in names are those of the source. Read-outs that look alike come from different tables or passages of the source. Values belong to the binder of their own block, whether it stands above or below them.

How the values were obtained:
[1] = target: T1, recombinant human CD25 (IL2-Rα) (human, UniProt P01589 22-213, limits assumed); assay: competition ELISA: binding of biotinylated wild type daclizumab IgG to CD25 in the presence of titrated competitor Fab, O.D. 415
T1 construct: Bought recombinant soluble protein; also called IL2 receptor α chain; recombinant soluble human CD25
T1 sequence (looked up): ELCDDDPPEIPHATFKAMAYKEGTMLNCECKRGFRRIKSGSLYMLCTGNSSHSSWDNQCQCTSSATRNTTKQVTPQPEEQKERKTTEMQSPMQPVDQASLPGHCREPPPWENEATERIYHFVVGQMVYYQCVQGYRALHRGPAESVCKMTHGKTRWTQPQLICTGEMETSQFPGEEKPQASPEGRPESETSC
Procedure: Wells of 96-well ELISA plates (Nunc-Immuno MaxiSorp plates, Nalge Nunc, Rochester, N.Y.) were coated with 100 μL of 0.2 μg/mL CD25 (Pepro Tech Inc., Rocky Hill, N.J.) in 0.2 M sodium carbonate-bicarbonate buffer (pH 9.4, Pierce, Rockford, Ill.) overnight at 4° C. After washing with Wash Buffer, wells were blocked with 200 μL of Superblock Blocking Buffer (Pierce, Rockford, Ill.) for 30 min and then washed. […] The plate was then washed with washing buffer three times. After washing, 100 μL of 1 μg/mL HRP-conjugated Streptavidin (Pierce) diluted in ELISA buffer was added to each well. After 30 minutes of incubation at room temperature, plates were washed and bound antibodies were detected by addition of ABTS substrate (Kirkegaard & Perry Laboratories, Gaithersburg, Md.). […] Binding inhibition curves were fitted using nonlinear regression with the software [sequence]

[2] = target: T1, recombinant human CD25 (IL2-Rα); assay: ELISA competition assay on CD25 (format of Section 6.3.1.1: competitor antibody titrated against biotinylated daclizumab on plate-coated CD25), OD415
Procedure: (§1) Wells of 96-well ELISA plates (Nunc-Immuno MaxiSorp plates, Nalge Nunc, Rochester, N.Y.) were coated with 100 μL of 0.2 μg/mL CD25 (Pepro Tech Inc., Rocky Hill, N.J.) in 0.2 M sodium carbonate-bicarbonate buffer (pH 9.4, Pierce, Rockford, Ill.) overnight at 4° C. After washing with Wash Buffer, wells were blocked with 200 μL of Superblock Blocking Buffer (Pierce, Rockford, Ill.) for 30 min and then washed. […] The plate was then washed with washing buffer three times. After washing, 100 μL of 1 μg/mL HRP-conjugated Streptavidin (Pierce) diluted in ELISA buffer was added to each well. After 30 minutes of incubation at room temperature, plates were washed and bound antibodies were detected by addition of ABTS substrate (Kirkegaard & Perry Laboratories, Gaithersburg, Md.). […] PRISM (GraphPad, San Diego) and reported as IC₅₀ wild type/IC₅₀ mutant (fold improvement over wild type control).

[3] = target: T1, recombinant human CD25 (IL2-Rα); assay: as above; remark: listed apart in the source
Procedure: as §1

[4] = target: T1, recombinant human CD25 (IL2-Rα); assay: competitive ELISA on plate-coated CD25; competitor biotinylated daclizumab
Procedure: as §1

[5] = target: T1, recombinant human CD25 (IL2-Rα); assay: competition ELISA on plate-coated CD25; competitor biotinylated daclizumab
Procedure: as §1

IC50 (read off the curve) [1]: ~30 nM
B1: VSR-SN Fab (Fab, V domains shown)
VH: QVQLVQSGAEVKKPGSSVKVSCKASGYTFTSYRMHWVRQAPGQGLEWIGYIVPSRGYTEYNQKFKDKATITADESTNTAYMELSSLRSEDTAVYYCARGGGVFDYWGQGTLVTVSS
VL: DIQMTQSPSTLSASVGDRVTITCSASSSISYMHWYQQKPGKAPKLLIYTTSNLASGVPARFSGSGSGTEFTLTISSLQPDDFATYYCHQRSTYPLTFGQGTKVEVK
notes: also called VSR-SN in Fab; copies: 1 + 1

EC50 [2]: 0.49 µg/mL | EC50 [3]: 0.71 µg/mL
B2: NuhuTac (rehumanized anti-Tac) (antibody, V domains shown)
VH: B1 VH with Q1E, S16A, V52N, R55T, I70M, E74K, T76I, N77S
VL: EIVLTQSPATLSLSPGERATLTCSASSSISYMHWFQQKPGQAPRLLIYTTSNLASGIPARFSGSGSGTDYTLTISSLEPEDFAVYYCHQRSTYPLTFGQGTKVEIK
notes: VH on human framework R3.5H5G, VL on ka3d1; N-terminal Glu in VH; also called rehumanized antibody

fold affinity over the parental antibody [4]: ~10 fold
B3: daclizumab VH variant SNKYL (antibody, IgG1, name in Kabat numbering, V domains shown)
VH: B1 VH with V52S, S54N, R55K, E59L
VL: B1 VL
notes: VH library clone, soluble IgG1

fold affinity over the parental antibody [4]: ~10 fold
B4: daclizumab VH variant RRGFE (antibody, IgG1, name in Kabat numbering, V domains shown)
VH: B1 VH with V52R, S54R, R55G, Y57F
VL: B1 VL
notes: as for B3

EC50 [2]: 0.47 µg/mL
B5: NuhuTacVH with daclizumabVL (antibody, V domains shown)
VH: B1 VH with Q1E, S16A, V52N, R55T, I70M, E74K, T76I, N77S
VL: B1 VL

fold improvement in binding over daclizumab [5]: ~2 fold
B6: daclizumab VL S29R-S31T (antibody, IgG1, V domains shown)
VH: B1 VH with V52N, R55T
VL: B1 VL with S28R, S30T
notes: Soluble IgG1/kappa; also called R29T31

fold affinity over the parental antibody [4]: ~10 fold
B7: daclizumab VH variant QRKFH (antibody, IgG1, name in Kabat numbering, V domains shown)
VH: B1 VH with V52Q, S54R, R55K, Y57F, E59H
VL: B1 VL
notes: as for B3

fold affinity over the parental antibody [4]: ~10 fold
B8: daclizumab VH variant RRKFE (antibody, IgG1, name in Kabat numbering, V domains shown)
VH: B1 VH with V52R, S54R, R55K, Y57F
VL: B1 VL
notes: as for B3

fold affinity over the parental antibody [4]: ~10 fold
B9: daclizumab VH variant RKGFN (antibody, IgG1, name in Kabat numbering, V domains shown)
VH: B1 VH with V52R, S54K, R55G, Y57F, E59N
VL: B1 VL
notes: as for B3

fold affinity over the parental antibody [4]: ~10 fold
B10: daclizumab VH variant RKGFE (antibody, IgG1, name in Kabat numbering, V domains shown)
VH: B1 VH with V52R, S54K, R55G, Y57F
VL: B1 VL
notes: as for B3

EC50 [2]: 1.18 µg/mL
B11: daclizumab VH and NuhuTacVL (antibody, V domains shown)
VH: B1 VH with V52N, R55T
VL: B2 VL
